Experimental data published in paper PMC6777427, “Large-Scale Molecular Evolutionary Analysis Uncovers a Variety of Polynucleotide Kinase Clp1 Family Proteins in the Three Domains of Life” (Genome Biology and Evolution, 2019).

Tested on: T1, Nc1ncnc2c1ncn2[C@@H]1O[C@H](COP(=O)(O)OP(=O)(O)OP(=O)(O)O)[C@@H](O)[C@H]1O
T1 construct: codon-optimised synthetic gene in pET-23b (NdeI/XhoI), C-terminal His6 tag kept, expressed in E. coli BL21(DE3), heat-treated at 60 °C, HisTrap; approx. 27 kDa by SDS-PAGE
Assay: purified protein
Assay type: biochemical, Thermus scotoductus
Details: ssRNA oligonucleotide (5'-R20-FAM-3') as co-substrate, 10 mM MgCl2, pH 8.0, 60 °C, ATP 0.1-50 µM

Which Km does the source give for Ts-Clp1 (Thermus scotoductus SA-01) here?
The Km was 2.5 µM.
